# Results reported in patent US20190263864A1 (GENOIMMUNE THERAPEUTICS, published 2019).
# Molecular target: T1, HLA-A0201 on the surface of T2 cells (human)
# T1 construct: MHC class I molecule on TAP-deficient T2 cells
# Assay: T2 cell peptide loading, 100 µM peptide, anti-HLA-A*02:01 FITC flow cytometry
# Method: After centrifugation at 200 g for 5 minutes for cell collection, the collected cells were washed with phosphate buffer saline (PBS) buffer twice, before incubated with anti-HLA-A*02:01 FITC monoclonal antibody at 4° C. for 30 minutes. The mean fluorescence intensity of cells was then detected and analyzed by the flow cytometry (BD FACSJazz™) and its software.
Binder,FI (fluorescence index),Mean fluorescence intensity
"FILDGSYSV [wild-type polypeptide (depicted in FILDGSYSV, SEQ ID NO:7)]",1.59,589
"FLLDGLYSL [mutant polypeptide's variant (depicted in FLLDGLYSL, SEQ ID NO:6)]",1.69,612
"FLLDGLYSV [mutant polypeptide's variant (depicted in FLLDGLYSV, SEQ ID NO:4)]",2.04,692

# Further lines, results first:
FI (fluorescence index),Mean fluorescence intensity,Binder
2.34,759,"FMLDGLYSV [mutant polypeptide's variant (depicted in FMLDGLYSV, SEQ ID NO:3)]"
1.92,664,"FILDGLYSV [mutant polypeptide (depicted in FILDGLYSV, SEQ ID NO:1)]"
1.99,681,"FILDGLYSL [mutant polypeptide's variant (depicted in FILDGLYSL, SEQ ID NO:2)]"
2.14,714,"FMLDGLYSL [mutant polypeptide's variant (depicted in FMLDGLYSL, SEQ ID NO:5)]"
